Numbering of substitutions follows the chain as printed. Ends that are not written are not given here.
Assays:
[1] = biological target: T1, human ACTH 18-39 (human); assay: SPR ProteOn, antibody immobilised
T1 construct: also called CLIP; CLIP (ACTH 18-39)
T1 peptide: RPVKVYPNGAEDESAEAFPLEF
Procedure: (§1) Antibody was immobilized to the surface of general amine coupling (GLC or GLM) Chips (Bio-Rad). […] At the chosen concentrations of antigen (ranging from 454 ng/ml to 5.6 ng/ml) association times of 200 seconds and dissociation times of 30-200 minutes were used with the ProteOnTM Manager Software (v3.1.0.6, Bio-Rad) to group and fit data using a 1:1 Langmuir binding model. Surfaces were regenerated between analyte queries using 10 mM glycine at pH 2.0. Data repeated across a single density was averaged and a single KD and standard propagation of error calculated for each antibody.

[2] = biological target: T2, human ACTH 1-13 (human, ends and bridges not checked); assay: SPR ProteOn, antibody immobilised
T2 construct: also called human alpha-MSH (ACTH 1-13); alpha-MSH
T2 peptide: SYSMEHFRWGKPV
Procedure: as §1

[3] = biological target: T3, human ACTH 1-39 (human); assay: cell-based or functional assay
T3 peptide: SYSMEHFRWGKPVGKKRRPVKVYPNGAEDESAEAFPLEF

[4] = biological target: T4, N-term biotinylated human ACTH 1-39 (human, N-terminal biotin); assay: ELISA, biotin-ACTH 1-39 on neutravidin plate
T4 construct: also called huACTH 1-39
T4 peptide: T3 peptide
Procedure: All incubations were done at room temperature. […] The plates were then blocked using a blocking solution (PBS, 0.5% fish skin gelatin, 0.05% Tween-20) for approximately one hour. The blocking solution was then removed and the plates were then incubated with a dilution series of the antibody being tested for approximately one hour. At the end of this incubation, the plate was washed three times with wash buffer and further incubated with a secondary antibody containing solution (Peroxidase conjugated AffmiPure™ F(ab′)₂ fragment goat anti-human IgG, Fc fragment specific (Jackson Immunoresearch) for approximately 45 minutes and washed three times. Next a substrate solution (TMB peroxidase substrate, BioFx®, SurModics, Eden Prairie, Minn.) was added and incubated for 3 to 5 minutes in the dark. The reaction was stopped by addition of 0.5 M HCl and the plate was read at 450 nm in a plate-reader.

[5] = biological target: T3, human ACTH 1-39; assay: cell-based or functional assay
[6] = biological target: T3, human ACTH 1-39; assay: cell-based or functional assay
[7] = biological target: T5, ACTH 1-24 (human); assay: cell-based or functional assay
T5 peptide: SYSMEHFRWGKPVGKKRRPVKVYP

[8] = biological target: T3, human ACTH 1-39; assay: cell-based or functional assay
[9] = biological target: T2, human ACTH 1-13; assay: SPR ProteOn, antibody immobilised; SPR, antibody on the chip, alpha-MSH alone (Table 6)
Procedure: as §1

[10] = biological target: T3, human ACTH 1-39; assay: SPR ProteOn, antibody immobilised
Procedure: as §1

[11] = biological target: T4, N-term biotinylated human ACTH 1-39; assay: competition HTRF, biotinylated human ACTH 1-39 in the presence of ACTH 1-13 and ACTH 18-39 at 10X (550 nM each, [p-2038])
Procedure: (§2) Twenty microliters of Eu3+cryptate labeled anti-hu Fc donor and 20 μl of d2-labeled streptavidin acceptor were added to each well and incubated for 1 hour at room temperature. Fluorescence was measured at […] with a delay of 300 μsec.

[12] = biological target: T4, N-term biotinylated human ACTH 1-39; assay: competition HTRF, biotinylated human ACTH 1-39 in the presence of ACTH 1-13 and ACTH 18-39 at 1X (55 nM each, [p-2038])
Procedure: as §2

B1: Ab2 (antibody, human IgG1, kappa, N297A, V domains shown)
VH: QSVEESGGRLVTPGTPLTLTCTVSGFSLSKYDMIWVRQAPGKGLESIGIIYDDGDTYYASWAKGRFTISQTSTTVDLKIISPTTEDTATYFCVKGVSNIWGQGTLVTVSS
VL: DVVMTQTPASVEAAVGGTVTIKCQASQSISNYLAWYQQKTGQPPKLLIYSASTLASGVPSRFKGSGSGTEFTLTISDLECADAATYYCQSYEGSSSSSYGVGFGGGTEVVVKR
notes: rabbit/human chimeric antibody, made in HEK-293
Kd [1]: 31 nM
koff [1]: 0.026 s⁻¹
kon [1]: 840000 M⁻¹ s⁻¹
koff [2]: > 0.1 s⁻¹
MC1R IC50 [3]: 3.62 nM
EC50 [4]: 0.42 nM
MC3R IC50 [5]: 79 nM
MC4R IC50 [5]: 54.5 nM
MC5R IC50 [5]: 1100 nM
MC2R IC50 [6]: 0.25 nM
IC50 (nM), cAMP in MC2R cells [7]: 1.3 nM

B2: Ab3 (antibody, human IgG1, kappa, N297A, V domains shown)
VH: QSLEESGGRLVTPGTPLTLTCTVSGSSLSNFDMIWVRQAPGKGLESIGIIYDFGSTYYASWAKGRFTISRTSSTTVDLKIISPTIEDTATYFCVKGVSNIWGQGTLVTVSS
VL: B1 VL with Q27E, S28D, N31S, Y32N, T40L, T74A, E92D, V101I
notes: as for B1
Kd [1]: 25 nM
koff [1]: 0.0085 s⁻¹
kon [1]: 340000 M⁻¹ s⁻¹
koff [2]: > 0.1 s⁻¹
MC1R IC50 [3]: 4.12 nM
EC50 [4]: 0.24 nM
MC3R IC50 [5]: 58.7 nM
MC4R IC50 [5]: 54.2 nM
MC5R IC50 [5]: 1100 nM
MC2R IC50 [6]: 0.29 nM
IC50 (nM), cAMP in MC2R cells [7]: 0.8 nM
Y1 Cells IC50 [8]: 7.72 nM

B3: Ab5 (antibody, human IgG1, kappa, N297A, V domains shown)
VH: QSVEESGGRLVTPGTPLTLTCTVSGFSLSSYAMSWVRQAPGEGLEWIGIISDSGSTYYASWAKGRFTISKTSTTVDLKITSPTTEDTATYFCAREPEYGYDDYGDWVSDLWGQGTLVTVSS
VL: DIVMTQTPASVSEPVGGTVTIKCQASQSISSYLSWYQQKPGQPPKLLIYRASTLASGVPSRFKGSGSGTQFTLTISDLECADAATYYCQSYYYSSSITYRNAFGGGTEVVVKR
notes: as for B1
Kd [9]: 55 nM
koff [9]: 0.014 s⁻¹
kon [9]: 260000 M⁻¹ s⁻¹
Kd [10]: 0.064 nM
koff [10]: 6.4e-05 s⁻¹
kon [10]: 1e+06 M⁻¹ s⁻¹
koff [1]: > 0.1 s⁻¹
MC1R IC50 [3]: 1.96 nM
EC50 [4]: 1.5 nM
MC3R IC50 [5]: 58.1 nM
MC4R IC50 [5]: 43.4 nM
MC5R IC50 [5]: 1000 nM
MC2R IC50 [6]: 0.11 nM
EC50 (read off the curve) [11]: ~3 nM
EC50 (read off the curve) [12]: ~2 nM
Y1 Cells IC50 [8]: 3.49 nM

B4: Ab6 (antibody, human IgG1, kappa, N297A, V domains shown)
VH: B3 VH with S29T, S30D, I68F, K78R, D102E, Q113P
VL: DIVMTQTPASVEAAVGGAVTIKCQATQSIGNNLAWYQQKPGQPPKLLIYRASTLASGVPSRFKGSGSGTEFTLTISDLECADAATYYCQSYYYSSSITYHNAFGGGTEVVVKR
notes: as for B1
Kd [9]: 16 nM
koff [9]: 0.0052 s⁻¹
kon [9]: 330000 M⁻¹ s⁻¹
Kd [10]: 0.019 nM
koff [10]: 1.9e-05 s⁻¹
kon [10]: 1e+06 M⁻¹ s⁻¹
koff [1]: > 0.1 s⁻¹
MC1R IC50 [3]: 1.04 nM
EC50 [4]: 2 nM
MC3R IC50 [5]: 62.8 nM
MC4R IC50 [5]: 55.2 nM
MC5R IC50 [5]: 1000 nM
MC2R IC50 [6]: 0.03 nM
IC50 (nM), cAMP in MC2R cells [7]: 0.1 nM
Y1 Cells IC50 [8]: 1.44 nM

Reference: patent US20230174641A1 (H LUNDBECK A S, published 2023)
